From publication PMC7849368 (Genes & Development, 2021)

Biological target: T1, Esc2, purified, as used in microscale thermophoresis (budding yeast, UniProt Q06340 1-456)
T1 sequence: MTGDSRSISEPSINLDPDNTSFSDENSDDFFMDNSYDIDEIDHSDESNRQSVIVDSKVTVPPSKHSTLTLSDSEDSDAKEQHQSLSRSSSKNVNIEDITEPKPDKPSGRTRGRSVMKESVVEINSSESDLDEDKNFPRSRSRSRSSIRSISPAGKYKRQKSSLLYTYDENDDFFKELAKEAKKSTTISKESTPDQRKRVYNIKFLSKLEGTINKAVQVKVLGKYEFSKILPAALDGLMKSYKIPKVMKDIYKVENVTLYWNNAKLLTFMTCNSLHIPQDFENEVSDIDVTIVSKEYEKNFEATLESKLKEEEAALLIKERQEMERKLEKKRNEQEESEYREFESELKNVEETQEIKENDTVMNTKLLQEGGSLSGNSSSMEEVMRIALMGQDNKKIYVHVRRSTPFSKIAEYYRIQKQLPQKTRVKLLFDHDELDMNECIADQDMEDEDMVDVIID
Test: MST

B1: Ubc9, purified (enzyme)
chain: MSSLCLQRLQEERKKWRKDHPFGFYAKPVKKADGSMDLQKWEAGIPGKEGTNWAGGVYPITVEYPNEYPSKPPKVKFPAGFYHPNVYPSGTICLSILNEDQDWRPAITLKQIVLGVQDLLDSPNPNSPAQEPAWRSFSRNKAEYDKKVLLQAKQYSK
modifications: RED-tris-NTA dye on the His tag (MST only)
Binder B1 has a Kd of 372 nM.
